Results from patent US20150098945A1 (Daiichi Sankyo, published 2015).
Each block holds one binder with its values, some of them ahead of it.

Experiments:
[1] = target: T1, rat ROBO4 (pCI-raROBO4-transfected HEK293 cells) (rat, UniProt Q80W87 38-949 at identity 0.93)); assay: flow cytometry (FC500), HEK293 cells transfected with pCI-raROBO4, FITC goat anti-human IgG Fc; control histogram IgG (human IgG)
T1 chain: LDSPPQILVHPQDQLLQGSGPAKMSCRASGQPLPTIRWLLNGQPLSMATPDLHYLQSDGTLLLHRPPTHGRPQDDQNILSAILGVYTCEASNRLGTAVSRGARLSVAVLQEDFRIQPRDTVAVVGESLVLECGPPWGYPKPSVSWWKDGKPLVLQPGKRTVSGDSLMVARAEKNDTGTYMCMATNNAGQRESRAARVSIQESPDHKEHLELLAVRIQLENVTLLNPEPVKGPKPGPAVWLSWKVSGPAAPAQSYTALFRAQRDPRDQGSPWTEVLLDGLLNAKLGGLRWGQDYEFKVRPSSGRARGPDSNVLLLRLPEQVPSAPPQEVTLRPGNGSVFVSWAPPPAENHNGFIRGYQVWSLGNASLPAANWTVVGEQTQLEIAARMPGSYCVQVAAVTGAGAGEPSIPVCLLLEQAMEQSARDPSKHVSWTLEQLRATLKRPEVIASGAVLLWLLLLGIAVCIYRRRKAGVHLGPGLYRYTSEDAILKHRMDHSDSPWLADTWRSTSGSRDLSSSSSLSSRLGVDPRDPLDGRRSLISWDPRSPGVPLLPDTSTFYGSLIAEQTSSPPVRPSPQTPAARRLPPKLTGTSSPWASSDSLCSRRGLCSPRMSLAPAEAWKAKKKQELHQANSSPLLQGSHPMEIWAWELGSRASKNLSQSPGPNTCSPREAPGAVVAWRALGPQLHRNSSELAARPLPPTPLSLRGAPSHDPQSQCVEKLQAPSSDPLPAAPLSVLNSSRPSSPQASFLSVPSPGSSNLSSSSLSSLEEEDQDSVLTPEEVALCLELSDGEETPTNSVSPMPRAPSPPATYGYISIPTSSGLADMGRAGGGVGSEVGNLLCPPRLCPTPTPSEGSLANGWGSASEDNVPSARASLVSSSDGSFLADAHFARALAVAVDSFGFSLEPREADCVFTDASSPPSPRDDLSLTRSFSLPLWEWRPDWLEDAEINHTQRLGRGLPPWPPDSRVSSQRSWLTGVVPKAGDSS

[2] = target: T2, N-terminal FLAG-tagged full-length human ROBO4 (pCI-FLAG-hROBO4-28) (human, UniProt Q8WZ75 28-1007); assay: flow cytometry, HEK293 cells transfected with pCI-FLAG-hROBO4-28, antibody at 10 µg/mL, anti-mouse IgG FITC; control histogram IgG (Mouse IgG2a)
T2 construct: On transfected HEK293 cells
T2 sequence: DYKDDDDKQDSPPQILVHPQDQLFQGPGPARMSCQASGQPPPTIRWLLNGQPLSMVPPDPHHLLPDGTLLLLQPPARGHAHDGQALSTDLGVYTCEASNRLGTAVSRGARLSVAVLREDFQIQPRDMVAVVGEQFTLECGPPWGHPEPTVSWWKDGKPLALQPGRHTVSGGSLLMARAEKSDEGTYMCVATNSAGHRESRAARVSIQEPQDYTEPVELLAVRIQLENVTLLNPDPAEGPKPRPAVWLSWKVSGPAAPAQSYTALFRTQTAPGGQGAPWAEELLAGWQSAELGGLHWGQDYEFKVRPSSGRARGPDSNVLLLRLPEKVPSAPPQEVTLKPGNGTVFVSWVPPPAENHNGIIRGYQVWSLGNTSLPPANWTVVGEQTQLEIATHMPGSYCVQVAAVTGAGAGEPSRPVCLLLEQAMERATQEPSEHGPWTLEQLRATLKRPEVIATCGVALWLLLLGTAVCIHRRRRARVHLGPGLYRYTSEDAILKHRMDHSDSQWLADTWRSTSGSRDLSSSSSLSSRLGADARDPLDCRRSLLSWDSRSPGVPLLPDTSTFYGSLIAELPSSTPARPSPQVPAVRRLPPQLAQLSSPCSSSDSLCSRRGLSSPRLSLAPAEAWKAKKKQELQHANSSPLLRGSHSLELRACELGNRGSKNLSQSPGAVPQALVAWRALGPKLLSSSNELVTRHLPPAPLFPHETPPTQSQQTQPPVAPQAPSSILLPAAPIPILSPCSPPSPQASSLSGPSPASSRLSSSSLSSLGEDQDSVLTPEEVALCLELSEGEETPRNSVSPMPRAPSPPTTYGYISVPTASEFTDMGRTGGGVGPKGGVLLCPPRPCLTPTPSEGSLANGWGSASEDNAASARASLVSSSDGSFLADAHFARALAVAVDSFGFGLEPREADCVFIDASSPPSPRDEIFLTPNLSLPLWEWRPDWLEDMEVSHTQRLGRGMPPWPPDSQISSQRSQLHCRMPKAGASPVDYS
Experimental: HEK293 cells were inoculated at a concentration of 1.5×10⁶ cells/dish to a 60-mm dish (manufactured by Corning Inc.) and cultured overnight in a DMEM medium containing 10% FBS at 37° C. under 5% CO₂ conditions. […] On the next day, the expression vector-transfected cells were treated with TrypLE Express (manufactured by Life Technologies Corp.), washed with PBS containing 5% FBS, and then suspended in PBS containing 5% FBS. The obtained cell suspension was used in flow cytometry analysis.
Each cell suspension prepared in 4)-5-1 was centrifuged, and the supernatant was removed. Then, MAb1, a positive control Monoclonal ANTI-FLAG M2 antibody produced in mouse, or a negative control Mouse IgG2a was added at a concentration of 10 μg/mL to 2×10⁵ expression vector-transfected cells, and the resulting suspension was left standing at 4° C. for 1 hour. The cells were washed once with PBS containing 5% FBS. Then, Anti-Mouse IgG FITC conjugate diluted 1000-fold with PBS containing 5% FBS was added thereto, and the resulting suspension was left standing at 4° C. for 1 hour. […] Data was analyzed using Flowjo. The histogram of FITC fluorescence intensity was prepared. The antibody was determined to bind to a cell when the histogram of MAb1 was shifted to a stronger fluorescence intensity region compared with the histogram of the negative control Mouse IgG2a. […]

- binding result [1]: no binding (tested: 10 µg/mL)
B1: humanized MAb1 antibody H-2143 (antibody, human IgG2, kappa, V domains shown)
VH: EVQLVESGGGLVQPGGSLRLSCAASGFTFSTYAMSWVRQAPGKRLEWVATISQGGTYTYYPDSVKGRFTISRDNAKNTLYLQMNSLRAEDTAVYYCARLIYYDYLDYWGQGTLVTVSS
VL: DIVMTQSPLSLPVTLGEPASISCRSSQSLENENKNLYLNWYLQKPGQSPQLLIYRVSNRFSGVPDRFSGSGSGTDFTLKISRVEAEDVGVYYCLQVTHVPWTFGPGTKVDIKR
notes: Human IgG2 / kappa constant regions; also called hMAb1-H4-type heavy chain + hMAb1-L2-type light chain

- binding result [2]: binds
B2: anti-ROBO4 mouse monoclonal antibody MAb1 (antibody, mouse IgG1, V domains shown)
VH: EVQLVESGGGLVKPGGSLKLSCAASGFTFSTYAMSWVRQTPEKRLEWVATISNGGTYTYYPDSVKGRFTISRDNAENTLYLQMSSLRSEDTAMYFCARLIYYDYLDYWGHGTTLTVSS
VL: DAVMTQTPLSLPVSLGDQASISCRSSQSLENSNGNTYLNWYFQKPGQSPQLLIYRVSNRFSGVLDRFSGSGSGTDFTLKISRVEAEDFGVYFCLQVTHVPWTFGGGTKLEIKR
notes: Mouse IgG1 (gamma1), kappa light chain, purified from hybridoma supernatant; also called parent antibody MAb1
